Results: a protein production outcome set (Wang et al. 2014)

Assay: label from the status in PepcDB records

Sequence	protein production
MPKSKEMEEEMKENSQDKNFMYKLAEFIVDKRNLFFLIYIIALVFCIFSRNWVKVENDVTKYLPDSTETRQGLTVMNDQFVTYGTAQVLLANISYDRAQEAADMIEDINGVTSVTFDNTEDHYKGTSALLDVTFDGEEEDQISIDAMNEIKDKLTGYDVYYSTSVANDDSANLESEMQVVTAIAAVIIVVVLLLTSKSYAEVPVLLITFIAAALLNMGTNFLLGTISFISNSVTIVLQLALAIDYAIILCHRYTEERENLPAREATITALSKAIPEISSSSLTTVSGLLALAFMQFKIGEDLAVVLIKAIILSLISVFTLMPGLIMVFSKWMDKTVHKNLIPSISAVGKFAIKTKYIIPPIFAAVIIVACVFANMCPYCFSTGSTSTPRKSESTIAQEKIDSTFGSRNMIALVVPAGNYEAEKNLLADLDACDEVKSTQGLANTEAMDGYMLTDSLTPREFSELVGLDYEVAQLLYSAYAINQENYGEVINSSSKYSVPLIDMFEFLLDEIDKGYVTLEGDLKDQMDDLSGQLDKALLQLKTDDYSRLVVYLNLPEEGDETFAFLDRVHEMMAKYYTDNYYVVGNSTSDYDLSSSFSRDNLVISILSALFVIIILLFTFKSAGLPVLLILVIQGSIWINFSFPYLMDSPLYFLGYLVVNSIQMGANIDYAIVISSRYDDLKKQLPIKEAIIETLNQAFPTIITSGSILAAAGILISFLSTNGVISAIGTCLGRGTIISIILVMGVLPQILYLGDVIIEKTRFSINTDNLIQNTGGTMVINGRMRGYVSGIIDAEIHGVIKGEVKGQIDVNNIDVIKKEEPEDGGDGNEEA	failed
MSLRRLLAVFAVVGMVVIAGCAGGIDNGEPATSGVTEQATTTVATTETAAPTGELVVHQLNVGQGSSTLVVGPDGETLLIDTGDWTDDGEDVIAYLESQGVTRIDHLVTSHPDADHIGGHAAVIEHFETNGDGVGAVYDPGIASSSATYEEYLDAVEAHNVPLYRTQAGDSIPMSGATAQILAPPEGYLANEDRNENSIVVHVQFGASSFLLPGDGETASEEYLVDTYGDRLNSTVLVVGHHGSRSSTSAAFLEAVSPRVAVISSAYESQYGHPHEAVLERLAARSIPTYWTATHGTITFTSNGSAVTVATQQDAPTTATELRSGDPVEPGTGGGLVDRLVIPTAGSGTTPITDPDGTTEPAETTSTSTAGRLDLVEIHADAAGDDAENLNGEYITVEHTGASSLDLSGWTLADAAGHSYTIPEGTVLEPGDQLTIYTGSGTDTATELYWGQSSPVWNNGGDTISLRDATGTTVIEETY	failed
MVNLDAEIYEHLNKQIKINELRYLSSGDDSDTFLCNEQYVVKVPKRDSVRISQKREFELYRFLENCKLSYQIPAVVYQSDRFNIMKYIKGERITYEQYHKLSEKEKDALAYDEATFLKELHSIEIDCSVSLFSDALVNKKDKFLQDKKLLISILEKEQLLTDEMLEHIETIYENILNNAVLFKYTPCLVHNDFSANNMIFRNNRLFGVIDFGDFNVGDPDNDFLCLLDCSTDDFGKEFGRKVLKYYQHKAPEVAERKAELNDVYWSIDQIIYGYERKDREMLIKGVSELLQTQAEMFIF	not failed
MKSKGRNRLLSLIICICIAFAFSSCVKNDLPYPVVRLSITGFEVNGQIGSAVINNEERTVTVDLLDSVDLKKVIVTRFDYSEEANTDLKVNTTIDLSSPKEVVLSLYQDYRWKIIANQTVERVFSVKNQVGGAVIDEKARQAIVYVNKNTMLNKITVKDLKLGPISSTVSPDFITLKDFTQEQKVNVTFKGKTEEWSLYAFITDKVVFTNSADGWTNVAWLYGEGQEDVVNGFEIREASSEEWTRVDQDIVVQNGVNFYVCVPHLKADTEYVCRALVDGTEDRGEEITFRTTAAIPLTGGTFDNWNQSGKVWNPWGSNETPFWDTGNQGATTLGDSNSVPTEDIWSGKTTGMAAKLESKFVGVGSAGKLAAGNLFVGKYVATDGTNGILNFGQSFSAYPTHLKGYYKYQPGVIDNSSIEYNYLKGRTDTCSIYIAIGDWDSPIEIRTKPSNRKLFDKNDKHVIAYAEFTSGTPVAVYKEFDLKLEYRATNRKPTYIVLVCSASKYGDFFTGASGSVLYVDEFSLEYDYDN	failed
MYVTKRLSEYKRNPSELTLLPTEGPNSGVLVIQDEESRPTLKCCFVNSFDWELNGLPFPQNTRVIVKRQIGTALYLDPVAFIPVLHQPPSSNLYYVIRGSGKHTGEACVSAKEGDRASCCFCFTYIPEAVPRPLDPFDINQQFEIHQGRSSTKKFFATSVASDGIPPQFLTRKGWSVIFSAPEVEDYGLIDDAKGIVDAKLRYELPDLDNSVVVGKWYVPFLFVKEGDAKDQMYKSMYYSMTLQQRFEEVFFCENVGNNKRFEVVVDVEVETEVVKLEGERIARETQGVNSDGVVWFNASGNEKIGLGSVVLERMKWEEERFGWLNKGYEQRSSIKRTERFEGGGPYWKSYRCYVLVETFELKRTDGSLVLTYEFKHVDKLKSKWD	failed
MQDVLVIFAFFIILLSIVIALIKDLSSWVYITILLAIASWLLLFPQILSPYVVGIDAHFEHIIAEETLRTGHWDPDLSGNIVNAALSITILTPFISIVSGIPLDWVLKIILTIYPLISIPIIWKSNIHILSFSNRESFLSLLLLIGTSSFMLISVYGRQEVGLFSGLVLLYFLHFKKSSVQLSIVLIFLVIGLIFSHYSTAIILIITYAISSLFLYLFQRDKCSMRLVLFSIVFMVFWLILIVYASMASISHSFNFIYLSILDWATENSSIVVEQQLNPTFYNIFQSLNYVINIFIIIFLVIGTSYLVYSRVVKSKLESEENKKYFIFAFLSSIYILLSVLPGFSSVYNAERIYLTTLYLFSGFSLIGFKRVFVYIVTFFTKFSPIYLKKSNKYIFVVFSFFVLVHFVLQVGILPMLYYGDTNSKYFGDISEDRHYTLEEEVYAVNWLQGINNNNRIYTDFYGRGRLPLRSYGNIPTSQIVDLKEIGPTTLNLRNIIFYQQKKELNDEVSSKNFEQIEEINNFLQKYGSTLYNSGMTEVKVINLNS	failed
MNITLAVLQLEDIPQAKQFAIRTRQLLFPDVYQLALPYDLTHFQDVYLHDQKGACFVVKDQQHNIIGMIAYRAYNHRFALDIPKDSVEVVKLFIQPEYRRQGLASRLCEALFGYAAQQKIKYFYLHTHPFLPAAEYFWTKQGFDVIHREEIQNYDTIHMFKSA	failed
MVAVRSAHLNTEGEFVPDAWIASLGIASQQSCERLAETWRYCEQQTQNQPDASLLLWRGIEMVEILSTLSMDNDSMRAALLFPLADANVVDEATLEAAFGKNIVDLVHGVRDMDAIRQLKATQNDSDASEQVDNIRRMLLAMVEDFRCVVIKLAERIAHLREVKDAPEEERVLAAKECTNIYAPLANRLGIGQLKWELEDFCFRYLHPDEYKKIAKLLHERRIDRAQYIDDFVKTLRDAMKEEGVQAEIYGRPKHIYSIWRKMQKKALSFDELFDVRAVRIVVERLQDCYGALGIVHTHYRHMPDEFDDYVANPKPNGYQSIHTVVLGPSGKTLEIQIRTRQMHEDAELGVAAHWKYKEGTAVGGRSGYEGRIAWLRKLLAWQEEVSDSNDVLDEVRSQVFDDRVYVFTPKGDVVDLPAGSTPLDFAYHIHSDIGHRCIGAKIGGRIVPFTYQLHMGDQIEIITQKQPNPSRDWLNPNLGYITTSRGRSKIQNWFRKQDRDKNILAGRQILDDELAHLGVSLKAAEKLLLPRYNVNSLDELLAAIGGGDVRLNQMVNFLQSQLKQPSAEELDREALRQLTQKTHQPPARSNNKDNGRVVVEGVGNLMHHIARCCQPIPGDEITGFITRGRGISIHRADCEQLDELRASSPERIVDAVWGESYSSGYSLVVRVIANDRSGLLRDITTILANEKVNVLGVASRSDTKQQLATIDMDIEIYNLQVLGRVLAKLNQLPDVIDARRQQGA	failed
NDVFSDEVKKIDDNTFIVEGRMPLDDFNKMFHVELPARGVDTVAGFVLTLTGTIPEEDDKVVVEYDTLRFTVEEMNDARLVSVRVEKDI	failed
MTITSNISVQNDNLVVQGKTILTKIPDNIILTPVTGNGFVSGSFIGATFEQSKSLHVFPIGVLEGLRFMCCFRFKLWWMTQRMGSCGKDIPLETQFMLLESKDEVEGNGDDAPTVYTVFLPLLEGQFRAVLQGNEKNEIEICFESGDKAVETSQGTHLVYVHAGTNPFEVIRQSVKAVERHMQTFHHREKKKLPSFLDWFGWCTWDAFYTDVTAEGVDEGLKSLSEGGTPPKFLIIDDGWQQIENKEKDENCVVQEGAQFATRLVGIKENAKFQKSDQKDTQVSGLKSVVDNAKQRHNVKQVYAWHALAGYWGGVKPAASGMEHYDSALAYPVQSPGVLGNQPDIVMDSLAVHGLGLVNPKKVFNFYNELHSYLASCGIDGVKVDVQNIIETLGAGLGGRVSLTRSYQQALEASIARNFTDNGCISCMCHNTDGLYSAKQTAIVRASDDFYPRDPASHTIHIASVAYNSLFLGEFMQPDWDMFHSLHPTAEYHAAARAVGGCAIYVSDKPGNHNFDLLRKLVLPDGSVLRAKLPGRPTRDCLFADPARDGIRCWLVQGNEEEPDP	failed
MLHSSIVLVIKEETMNVAKMYDDVSERYQKLVDDSHYVGPRWISGKLKTLPIEQGSALDLACATGSIGHVVKNHYPDLTIHGLDISSKMVDKARQTNLYQSVSVHNLDEPFSPLFEQTFDLITALGFTEFLAEPQQLLECISRKLTANGRCFISFQYHDPDGQDLPRNTYSGSVVHTAYTESEVEQLCQQAGLEVVSLENVIGYVSGVGYVCRYLMLELKKSHR	failed
MPRLTTRALTRCLLATLALLCIALPALAAAPITPLRVMSFNVRVPVDTDGDKRWQARRGAMVSVIKQTHPDVFGTQELVSEQAGYLAAQLPNYRWFGQGRRGDDSDEHMGVFYDTRTLNVVESGNFWLSDTPEVAGSITWGNVLPRMVTWALFERRSDKRRFYLFNTHFPYRDEDEPAREHSARLILSRIAQLPADIPVVLTGDFNSDPDKITYPTLTAVLGDARARAPKRSGPENTFQDFSTHPTRRIDWILFRGLTPTQFTTLDDRPGGVLPSDHYPVLAEFAWPR	failed
MSSSSPSGSGSDLTERRGIPAAKFIQDVETYLSQSGLDPNSALAFHQERLQQYKVVEMKLLAQQRDLQAKIPDIEKCLEVVATLEAKKGTGEALLADFEVSEGIYSRACIEDTDSVCLWLGANVMLEYSCEEASALLKNNLENAKASLEVLVADLQFLRDQVTVTQVTIARVYNWDVHQRRVKQVTPTAIAVADS	failed
MPGFDYKFLEKPKRRLLCPLCGKPMREPVQVSTCGHRFCDTCLQEFLSEGVFKCPEDQLPLDYAKIYPDPELEVQVLGLPIRCIHSEEGCRWSGPLRHLQGHLNTCSFNVIPCPNRCPMKLSRRDLPAHLQHDCPKRRLKCEFCGCDFSGEAYESHEGMCPQESVYCENKCGARMMRRLLAQHATSECPKRTQPCTYCTKEFVFDTIQSHQYQCPRLPVACPNQCGVGTVAREDLPGHLKDSCNTALVLCPFKDSGCKHRCPKLAMARHVEESVKPHLAMMCALVSRQRQELQELRRELEELSVGSDGVLIWKIGSYGRRLQEAKAKPNLECFSPAFYTHKYGYKLQVSAFLNGNGSGEGTHLSLYIRVLPGAFDNLLEWPFARRVTFSLLDQSDPGLAKPQHVTETFHPDPNWKNFQKPGTWRGSLDESSLGFGYPKFISHQDIRKRNYVRDDAVFIRAAVELPRKILS	not failed
MSSPTRTSAKDRLSGVWALKGYKREWLRHDIVAGAALFALLVPAGMAYAQAAGLPPVTGLYATVVPLLVYAIVGPSRILVLGPDSALAPMIAAAIVPLAAGSSEKSVALAGLLAVLIGVIMLAGSALKLGTITGLLSKPIRLGYLNGIALLVLLSQLPAFFGIEADGDIWEKLAKVTTGVLGGGVNVTALLLGSGSLALIWIPRLLKWKVPGVLLAVVGSCVVTAVWGLNDDVKVTGVLPQGLPMPALGGIGWADALTLLPAAAGIALMAFADTGVLSQTLAAKEGKKVSGNREMAALGAANAATGLLGGFPISGSTSRTPVAVDAGAKSQMTGVVGSVLVLAFMLLAPGVTEYLPSATLAAVVIAAAIALADPAGVKRLLSLSRSESVVMLAAFLGVLTVGVLQGIVVAIALALLDFVRRAWDPYRTELGAEEGLPGYHDLERHPDGERIPGLLILRFDAPLFFGNGQVLAAFVREQLDEAPDETTDAITHVILAAEPITGIDTTALDDLVTLDEWLASKGVDLVFAELKGPVKDKLIHLGTAARFTPDHFFPTVGAAVRTLKNE	failed
